Common to all, as to assay type: cell-based
Experiment [1] deals with Normal human umbilical vein endothelial cells and normal human dermal fibroblasts. The experiment is described as follows: Evaluation of angiogenesis inhibitory action (angiogenesis kit, lumen formation in the presence of VEGF-A). Here is the method: Evaluation of Angiogenesis Inhibitory Action
A test was conducted for confirming the angiogenesis inhibitory action of cinnamon bark hot water extract.
Normal human umbilical vein endothelial cells and normal human dermal fibroblasts were co-cultured at a constant ratio using an angiogenesis kit (Kurabo Industries) and prepared in the growth state of the initial stage of lumen formation. The cells were incubated (under conditions of 37° C. and 5% CO2) after adding medium containing a prescribed concentration of cinnamon bark hot water extract in the presence of 10 ng/ml of vascular endothelial cell growth factor A (VEGF-A, Kurabo Industries). […] The stained images obtained from each well were then photographed (FIG. 4), and the images were analyzed using the length and surface area of lumen formation as indicators to evaluate angiogenesis inhibitory action (FIGS. 5 and 6). Image analysis for the length of lumen formation and image analysis for surface area were respectively carried out using angiogenesis quantification software (Kurabo Industries). […] Moreover, angiogenesis inhibitory action in the presence of VGF-A was also evaluated for Ang-1, which is known to have an action that is responsible for vascular stabilization.

The target of a further experiment is T1, full-length murine TIE2 (Mus musculus, UniProt Q02858).
T1 construct: Ba/F3 transduced with full-length murine TIE2(BaF/TIE2); expressed in transfected cells; host or cells: Ba/F3 (murine pro-B cell line)
T1 sequence (Q02858 23-1122): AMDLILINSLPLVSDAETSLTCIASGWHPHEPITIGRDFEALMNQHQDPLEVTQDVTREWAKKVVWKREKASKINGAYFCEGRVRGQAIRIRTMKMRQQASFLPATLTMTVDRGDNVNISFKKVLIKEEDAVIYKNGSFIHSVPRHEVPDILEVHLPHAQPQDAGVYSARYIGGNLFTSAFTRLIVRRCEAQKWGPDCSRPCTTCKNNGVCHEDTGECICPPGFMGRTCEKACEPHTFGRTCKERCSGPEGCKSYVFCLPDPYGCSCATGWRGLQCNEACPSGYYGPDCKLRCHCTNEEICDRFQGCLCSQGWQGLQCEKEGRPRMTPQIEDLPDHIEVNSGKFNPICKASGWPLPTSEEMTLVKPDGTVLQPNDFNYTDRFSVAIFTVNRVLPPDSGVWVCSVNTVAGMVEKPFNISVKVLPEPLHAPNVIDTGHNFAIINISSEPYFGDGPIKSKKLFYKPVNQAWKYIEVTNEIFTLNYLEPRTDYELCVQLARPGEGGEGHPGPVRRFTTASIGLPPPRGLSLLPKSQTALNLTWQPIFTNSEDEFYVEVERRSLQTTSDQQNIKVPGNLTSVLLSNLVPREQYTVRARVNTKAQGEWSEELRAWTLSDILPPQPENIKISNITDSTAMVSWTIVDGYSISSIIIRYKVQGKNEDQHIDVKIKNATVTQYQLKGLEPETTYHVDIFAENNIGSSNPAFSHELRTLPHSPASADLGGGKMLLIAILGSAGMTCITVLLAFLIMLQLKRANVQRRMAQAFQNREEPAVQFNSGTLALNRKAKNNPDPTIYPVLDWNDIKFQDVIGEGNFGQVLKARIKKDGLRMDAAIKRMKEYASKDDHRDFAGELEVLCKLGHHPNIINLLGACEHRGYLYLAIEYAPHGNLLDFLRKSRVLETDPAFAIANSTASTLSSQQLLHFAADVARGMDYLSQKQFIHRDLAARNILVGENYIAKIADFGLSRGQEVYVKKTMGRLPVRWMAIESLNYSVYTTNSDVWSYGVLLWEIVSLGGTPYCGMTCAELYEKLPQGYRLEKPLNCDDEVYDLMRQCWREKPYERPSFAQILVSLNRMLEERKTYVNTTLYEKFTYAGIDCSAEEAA
The experiment is described as follows: Tie-2 phosphorylation evaluation in Baf3 cells (BaF/TIE2), Western blotting. The note with it: extracts 100 ppm, Angiopoietin-1 0.5 ppm, 10 minutes, FIG. 1 and 2. Here is the method:
Tie-2 Phosphorylation Evaluation Method
(§1) Baf3 cells, a murine pro-B cell line, Ba/F3 transduced with full-length murine TIE2(BaF/TIE2) were incubated in RPMI 1640 medium in the presence of IL-3 (Biosource, PMC0034) and 10% FCS. The cells were plated into a 6-well plate at 2×10^6 cells/1.5 mL/well and incubated overnight while omitting the FCS starting on the day before cell stimulation. DMSO solutions of the aforementioned hot water extract dry residues, Angiopoietin-1 (R&D System, 932-AN) as a positive control or DMSO as a negative control were added to the wells at a final concentration of 100 ppm, 0.5 ppm and 1000 ppm, respectively, followed by incubating for 10 minutes, cooling the cells on ice and washing with chilled PBS. The cells were then ultrasonically homogenized in RIPA buffer containing protease inhibitors (leupeptin, aprotinin, pepstatin, PMSF, Na3VO4). Sample buffer (0.2 M Tris-HCl (pH 6.8), 4% SDS, 20% glycerol, 5 mM EDTA, 0.01% BPB) was then added followed by carrying out SDS-PAGE (7.5% polyacrylamide gel, 12 wells, NPU-7.5L, Atto Corp.) under the conditions indicated below.
Gel: 7.5% acrylamide gel (NPU-7.5L, Atto Corp.)
Phoresis conditions: 40 mA (75 minutes, 2 gel sheets) […]
(§2) Next, Western blotting (20 V, 4° C., overnight) was carried out for transcription to a PVDF membrane. […] Protein bands were detected by chemiluminescence detection (ECL).

The next experiment addresses T2, Tie-2 (Homo sapiens, UniProt Q02763).
T2 construct: Tie-2 phosphorylation was similarly evaluated using normal human umbilical vein endothelial cells (HUVEC); endogenous in cells; host or cells: HUVEC (normal human umbilical vein endothelial cells)
The experiment is described as follows: Tie-2 phosphorylation evaluation in HUVEC. The conditions noted are these: evaluated in the same manner as Baf3 cells, FIG. 3. Here is the method: as §1, §2
2) Tie-2 phosphorylation was similarly evaluated using normal human umbilical vein endothelial cells (HUVEC). […]

T2 sequence (Q02763 23-1124): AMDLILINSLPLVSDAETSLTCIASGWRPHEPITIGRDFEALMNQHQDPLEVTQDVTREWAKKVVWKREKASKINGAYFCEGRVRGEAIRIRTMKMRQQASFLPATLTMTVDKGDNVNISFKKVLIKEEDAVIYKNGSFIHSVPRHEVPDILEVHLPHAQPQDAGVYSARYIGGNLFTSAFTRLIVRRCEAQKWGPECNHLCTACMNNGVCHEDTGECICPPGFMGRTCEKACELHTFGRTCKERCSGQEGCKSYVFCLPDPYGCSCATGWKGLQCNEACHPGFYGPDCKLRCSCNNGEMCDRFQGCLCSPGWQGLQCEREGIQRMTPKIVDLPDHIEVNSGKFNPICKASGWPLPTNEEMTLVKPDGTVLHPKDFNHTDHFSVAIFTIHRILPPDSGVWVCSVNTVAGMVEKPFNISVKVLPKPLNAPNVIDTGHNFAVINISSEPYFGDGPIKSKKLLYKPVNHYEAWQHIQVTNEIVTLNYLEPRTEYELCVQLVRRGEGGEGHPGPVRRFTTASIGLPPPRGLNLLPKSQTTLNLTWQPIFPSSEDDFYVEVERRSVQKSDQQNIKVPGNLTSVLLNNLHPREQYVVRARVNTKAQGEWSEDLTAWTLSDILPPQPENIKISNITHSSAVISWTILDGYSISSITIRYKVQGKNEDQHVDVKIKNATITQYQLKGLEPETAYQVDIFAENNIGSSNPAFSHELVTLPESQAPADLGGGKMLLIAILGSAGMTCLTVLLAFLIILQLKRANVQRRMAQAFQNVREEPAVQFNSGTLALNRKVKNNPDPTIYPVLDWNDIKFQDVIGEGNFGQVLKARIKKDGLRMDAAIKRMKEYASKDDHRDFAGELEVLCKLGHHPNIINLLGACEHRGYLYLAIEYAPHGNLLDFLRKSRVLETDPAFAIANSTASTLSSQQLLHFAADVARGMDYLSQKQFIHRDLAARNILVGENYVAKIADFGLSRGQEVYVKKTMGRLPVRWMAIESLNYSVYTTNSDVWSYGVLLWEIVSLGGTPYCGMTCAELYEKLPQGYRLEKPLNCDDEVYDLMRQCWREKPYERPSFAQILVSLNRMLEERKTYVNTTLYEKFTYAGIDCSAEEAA

Consider `Cc1ccc(C(=O)Nc2ccc(S(=O)(=O)O)c3cc(S(=O)(=O)O)cc(S(=O)(=O)O)c23)cc1NC(=O)c1cccc(NC(=O)Nc2cccc(C(=O)Nc3cc(C(=O)Nc4ccc(S(=O)(=O)O)c5cc(S(=O)(=O)O)cc(S(=O)(=O)O)c45)ccc3C)c2)c1` [Suramin, reference compound], for which, in experiment [1] (cultured with VEGF-A 10 ng/ml, FIG. 4, cinnamon bark extract particularly at 300 ppm), the “lumen formation (stained image)” value is “lumen formation was determined to be inhibited”.

B1: Ang-1: Angiopoietin-1 (R&D System, 932-AN), positive control known to activate Tie-2 (protein, UniProt Q15389 16-498, looked up)
Angiopoietin-1: HIGCSNQRRSPENSGRRYNRIQHGQCAYTFILPEHDGNCRESTTDQYNTNALQRDAPHVEPDFSSQKLQHLEHVMENYTQWLQKLENYIVENMKSEMAQIQQNAVQNHTATMLEIGTSLLSQTAEQTRKLTDVETQVLNQTSRLEIQLLENSLSTYKLEKQLLQQTNEILKIHEKNSLLEHKILEMEGKHKEELDTLKEEKENLQGLVTRQTYIIQELEKQLNRATTNNSVLQKQQLELMDTVHNLVNLCTKEGVLLKGGKREEEKPFRDCADVYQAGFNKSGIYTIYINNMPEPKKVFCNMDVNGGGWTVIQHREDGSLDFQRGWKEYKMGFGNPSGEYWLGNEFIFAITSQRQYMLRIELMDWEGNRAYSQYDRFHIGNEKQNYRLYLKGHTGTAGKQSSLILHGADFSTKDADNDNCMCKCALMLTGGWWFDACGPSNLNGMFYTAGQNHGKLNGIKWHYFKGPSYSLRSTTMMIRPLDF
In the case of B1, the Tie-2 phosphorylation entry in the experiment with full-length murine TIE2 and in the experiment with Tie-2 was “phosphorylation of Tie-2” throughout. Besides, the “angiogenesis inhibitory action (length and surface area of lumen formation)” value in experiment [1] (angiogenesis induced by VEGF-A 10 ng/ml, FIGS. 5 and 6, cinnamon bark extract 10 to 300 ppm) is given as “did not have angiogenesis inhibitory action”.

For the origin of these results see patent US9320770B2, “Blood vessel maturation, normalization or stabilization agent and wrinkle preventer/improver” (Shiseido Company, Ltd., priority 2008, dated 2016).
